The nature of the data set: soluble on expression in E. coli; label from the status in PepcDB or PDB records.
Take “MKIDLNADLGEGCASDAELLTLVSSANIACGFHAGDAQIMQACVREAIKNGVAIGAHPSFPDRENFGRSAMQLPPETVYAQTLYQIGALATIARAQGGVMRHVKPHGMLYNQAAKEAQLADAIARAVYACDPALILVGLAGSELIRAGKQYGLTTREEVFADRGYQADGSLVPRSQSGALIENEEQALAQTLEMVQHGRVKSITGEWATVAAQTVCLHGDGEHALAFARRLRSAFAEKGIVVAALEHHHHHH”: the “soluble on expression in E. coli” value is “soluble”.

As for “MSLRIAIIITQKTNDLHATVPCFLWRKARYAVDLISAEAKASIMLEMGIHVRCDNTLSKTNFNQYTAAFIPHGNTTRLVEIDKLRKDLEKFVYKPKGPMRWLFSSGNGACVLKEFDLIAPDQLVTVQNEKEMVKLLGKNFIKQPVHVDKNIISCANSCGLTKFSFKVIEELSGIELARKTANLVDHIYKGEGHHHHHH”, the “soluble on expression in E. coli” value is “soluble”.

Take “MKIIKGAFPVLITPMDEFQEINWNGVKQNVNYFIEQKVAGIIINGSTGEFVSLSKEERFKMVETVLKEVNGRIPVIVGTAAETTKETIEFTKHAETHGADCALIINSYYCKPKEEEIYFHFKEISNAVNIPIMLYNNPFTSGVDMSTELMLRIGKDCENVTHIKESSGDIRKARDLVRQGEGAFQVFCGSEDLVMESYLVGATGWVSVAGNVVPGLVTKMYEHFQNGELEKAWEINDAILPLCEFLEGSGKYVQIVKRSMELQGQAGGPSRYPRLGLTEEEDQKLQAIISKIAAHAAV”: the “soluble on expression in E. coli” value is “not soluble”.

Regarding “MGSDKIHHHHHHYKKKFSGEILCAALWGVNLLIGTDSGLMLLDRSGQGKVYPLISRRRFDQMTVLEGQNILATISGRKRRIRVYYLSWLRQKILRTEGAGSANTTEKRNGWVNVGDLQGAIHFKIVRYERIKFLVVGLESSIEIYAWAPKPYHKFMSFKSFGSLSHVPLIVDLTVEDNARLKVLYGSTGGFHAIDLDSAAVYDIYTPAQSGQTTTPHCIVVLPNSNGMQLLLCYDNEGVYVNTYGRMTKNVVLQWGEMPSSVAYISTGQIMGWGNKAIEIRSVDTGHLDGVFMHKKAQKLKFLCERNDKVFFSSAKGGGSCQIYFMTLNKPGLTNW”, the “soluble on expression in E. coli” value is “not soluble”. “MSLKRLACYIRVSSNKDDQQSSLIQQETLLREKFKQEDLIIYSDTGTGVSFNREGFKRLMYDAGLNICKLNDGRITFEADNIRKPIFDEIVVINTSRFSRNIAIIDILRVLWDYKKINVHFLDNCKNSNNPNDMTVLKMFFSMAENESMETSNRTKRGNEISILDNTIRNNSIFGWDFDREKNYLKINKKEAEIVRFIFKTALTNGLKMTAKIVNEKGYRTKKNRLWSSSTIKTLIVNPKYKGYNVRNKYSNENMFTGVKSKYVKKENWIIQKNNRIEPIVSEELWEEVQRALESRCLHGNREGHHHHHH”: the “soluble on expression in E. coli” value was “soluble”. For “MTVTSSAAIDIGGGGGGRRSDRLDSDRTSEDMSFIASPANIGASFVDVQNESSGSIDTATATLHELNYTFGMPPVTEESENMPQNYETVVELLPGEERAPINKLTEFPIEGGSLFVTNFRIVVILKDKEVEEALRFLVFPLQDIEQIDLAIPAFIHLSLKIGRMFTICFKTAEDAALVHKILYTAFQRLNRPISSIYTSRPQDWTSKNTDNPMQSLNAFAWKFSEAVDELDRDGKLPSWLLRADSVAQEITHIDFNRLGMSEHFQISSVNENFEVCPTYPEKIIVPKGITDDDIRKGAPYRSIGRFPAVIWRCRKTRAVLMRSSQPQVGILSWRNPTDEKIIEEAVKASRIEGEEKKQFIIMDARGYTSAFANRARSGGFENTEYYQQAKLEFLGLPNIHAVRGSFNNVRTMLHNLGPNEQLLTSLQTTGWLLNLSNLLVNAANCADHLSKGHSVLVHCSDGWDRTTQVTTLAKIMLDEYYRTVKGFEELIRRDWIAFGHKLYDRQLVAFGNWGTSDERSPVFLQFLEAVRHLQREQPTLFQFTHAYLIKLAKHAYSGLFGSFLFNSHKERREAMEKCKGTLVDIWRFIGPHNEEYVNQSFDEHYTGAVKPQIFSPKEERPLSGCTTPMNTSTSTNLVKSKSSESINSLNVDGSAKESSQQHPTCSTTPSDNTNSLPMSTSFIQQSLYQPKVRGVAAIDRDGVIRFEDDEQAMLRKKNKLRAEEIRRKDEKIEELRRRAVLDTNKVSPGQRQSYSESDVETTGTLERVMSDVSMVDPVNELPHFKPNTTWEGESGHCAYCKKEFNKLSVYVEDRQHHCRNCGRVVCEDCSKNRFSVIEEGKSVQKRACDSCYDSMHETDLKLSRATSLSEMSSFDSFGPSSPPASSTSSSSLNMLASMSPTRPQPIPISCKSSSNSISSPRPSPGEFSRHSSTQAVKG”, the “soluble on expression in E. coli” value is on record as “not soluble”. As for “MSLKTLFDKTNLGTINMKNRFLRGALWTALADEKGHMTNELSDVYEELARGGVGTIVTGYAFVTENEQPNPRMMGIYDDSFIPEYKEFTDKIHRLGSNIIMQIVYGGFMTEFNVGERVIWGPSTTKNEVTGTLSREMTKEDIKYLVNAYAEAALRVKKSGFDGVEIHGGHGYLVSQFLSPYYNKRTDEYGGSIENRGRFVFEIFKAIREKVGEKFPILIKLNSSDYVKEGGLTIEDSLYVAERLAELGIDAIEVTGGNESIEEVMKNNLGPSRTKVAISKDRESYFKEYAIKLAERINKPVILSGGNRHFDVMEELLNDTNIEYFSLSRPLTAEPDLINKWYSGDLKKPKCKSCNQCYKTYGKRCIFNIKEGHHHHHH”, the “soluble on expression in E. coli” value is on record as “soluble”.

Consider “MSLTSWNATIDPDNTIRFKEPDVLFDSGKSQVKERFKVVLDDFFPRYVKILSQEKYKGDIEEIRIEGHTSSEWLNAKTLEERYLGNAALSQARAFEVLKYCFALERIKGEQDWLIKVLRANGLSFAKPLDSEEHSRRVEFRTLTRSHQKMLKILDLSKEGHHHHHH”, for which the “soluble on expression in E. coli” value was “not soluble”. In the case of “MMETEVAVVPLTPLDIHNKEFSRGFRGYDEDEVNEFLDQVIKDYEMLIREKKQLEEKVAELTEKLNYFANIEETLNKSILVAQEAAEEVKRNAQKEAKLIIKEAEKNAERIISDALAKSRKIALEIEELKRQSKVFRARFRMLVEAQLDMINSRDWDELMEYEAPDLEEGAREPLSQP”, the “soluble on expression in E. coli” value is “not soluble”. With “GIIEAHCHVGIQEEKRGFEGNDCNEMTNPVTPYLRALDGINPMDSAFYTALTAGITGIMVGPGSANVVGGQWMFLKTYGRAIDKMVVLQPSAMKIAFGENPKANYDKKNMMPSTRIAIAAMLREELFEAQQYYEKRKNAEKSGDSFNKEFRKECWVPVFDKKIPLKAHVHRADDILTAIRIAKEFNLNLTLDHCTEGHLVAKEIKESGFPAIVGPTLTSRNKIETQYADFKTAGILHNEGVKVAITTDHPVTRIQDLLICAGLAAKEGLGIEEGLKAITINPAEICNVANRVGSIEVNKDADIAIFDGNPMETFTKTMYTIINGEIVY”, the “soluble on expression in E. coli” value is reported as “not soluble”. To “SNAMSLEKLDTNTFEQLIYDEGKACLVMFSRKNCHVCQKVTPVLEELRLNYEESFGFYYVDVEEEKTLFQRFSLKGVPQILYFKDGEYKGKMAGDVEDDEVEQMIADVLED” belongs “soluble”. To “MSLTSEDFLIKSKGYLDIQTGEIIKADLLIRNGKIAEIGKINTKDATVISIPDLILIPGLMDSHVHIVGNDSKGEESIADSSHMGTVWGVVNAEKTLMAGFTTVRNVGAANYADVSVRDAIERGVINGPTMLVSGPALGITGGHCDHNLLPPEFNYSSEGVVDSPWEARKMVRKNRKYGADLIKFCATGGVMSRNTDVNAKQFTLEEMKAIVDEAHNHGMKVAAHAHGLIGIKAAIKAGVDSVEHASFIDDETIDMAIKNNTVLSMDIFVSDYILGEGAKAGIREESLNKERLVGKKQRENFMNAHRRGAIITFGTDAGIFDHGDNAKQFAYMVEWGMTPLEAIQASTIKTATLFGIENIGQIKEGFDADIVGVIENPLANIRTLEEVAFVMKEGKVYKREGHHHHHH” belongs “soluble”; to “MNNFKLHTPTRILFGKGAIVDLRDQIPQDARVLITYGGGSVKKTGVLAQVQEALKGLDVREFGGIEPNPSYETLMKAVQLVRDENITFLLAVGGGSVLDGTKFIAAAAQYTDGVDPWHILETGGTEIRSAIPMGSVLTLPATGSESNAGAVISRKTTGDKQAFHSSFVQPVFAVLDPVYTYTLPPRQVANGVVDAFVHTVEQYVTYPVNGKIQDRFAEGILLTLIEEGPKALQEPENYDVRANVMWAATQALNGLIGAGVPQDWATHMLGHELTAMHGLDHAQTLAIVLPALWNEKRDVKRAKLLQYAERVWNITDGSDDERIDAAIAATRRFFEQMGVPTHLSDYGLDGSTIPALLAKLEAHGCINLGENQDITLDVSRRIYEAAR”, “not soluble”; to “MSISSIPSSPSISGSSTSSTAPNISFCYTWTTKLKTRKTADGEATILSISPKFATVHQLISFQWNIRIHATSEMNEEDEEVDYVAVDLYLVDGPVNEVNVMAEVGALEKTSTATLGSLPAGQKEAKTIKMQKGSGCEITDADRECVSKYLKENTRLFEPSTYLDAISPTPRASFLTANYNARVNSKVWKRRSRKRNGRIERRVLSDKEKTKYESKVQMILDEEREKLCDKREMLKEDDGGSRRASLISQFRENQHESVLDDHMFKRILVSCCESCEQRRLSFMCDSRTEDDSEGEDCEDNEEDDGEGGSDDEEDDGEEPHFECDKSDKEHVHDMLANLYFNKVVLPEMEYVEDFVDFLIDAELNDLPVLKRACERYLCSELNSKKDIGTCLLLDLLFNSIVFNLPVMKSMTLTELANRTHEFVDADTLLDQEEFKNLDKRMRTLADRNLVELIEQCVTFRDQKARVRVLPTAESFDISFDLTNQ”, “not soluble”. To “MGSSHHHHHHSSGLVPRGSHMDLSAASHRIPLSDGNSIPIIGLGTYSEPKSTPKGACATSVKVAIDTGYRHIDGAYIYQNEHEVGEAIREKIAEGKVRREDIFYCGKLWATNHVPEMVRPTLERTLRVLQLDYVDLYIIEVPMAFKPGDEIYPRDENGKWLYHKSNLCATWEAMEACKDAGLVKSLGVSNFNRRQLELILNKPGLKHKPVSNQVECHPYFTQPKLLKFCQQHDIVITAYSPLGTSRNPIWVNVSSPPLLKDALLNSLGKRYNKTAAQIVLRFNIQRGVVVIPKSFNLERIKENFQIFDFSLTEEEMKDIEALNKNVRFVELLMWRDHPEYPFHDEY” belongs “soluble”. Take “MKHVKKEKAEKLEKERQRHIGKPLLGGPFSLTTHTGERKTDKDYLGQWLLIYFGFTHCPDVCPEELEKMIQVVDEIDSITTLPDLTPLFISIDPERDTKEAIANYVKEFSPKLVGLTGTREEVDQVARAYRVYYSPGPKDEDEDYIVDHTIIMYLIGPDGEFLDYFGQNKRKGEIAASIATHMRPYRKKS”: the “soluble on expression in E. coli” value is on record as “soluble”. With “MSLSIAKNIENDPSKGWVVQKFGGTSVGKFPIKIAVDVAKEYLSTKRVALVCSARSTDTKAEGTTTRLIRATEAALRPAVGSVHDLVRIIETDHVQAARDFIQDVGIQDELIDAFHADCVELEQYLNAIRVLSEVSPRTRDLVIGMGERLSCRFMAAVLKDQGIDSEFIDMSHIIDEQREWRNLDASFYAYLASQLASKVTAVGNKVPVVTGFFGMVPGGLLSQIGRGYTDFCAALLAVGLNADELQIWKEVDGIFTADPRKVPTARLLPLITPEEAAELTYYGSEVIHPFTMSQVVHARIPIRIKNVGNPRGKGTVIFPDTISRHGSATPPHPPKIMPDDISASLANKGATAVTIKDTIMVINIQSNRKISAHGFLASIFAILDKYKLAVDLITTSEVHVSMALYEESDDGNMHEAFVELRRLGTLDILHGLAILSLVGKHMRNTTGYAGRMFCKLAEAQINIEMISQGASEINISCVIDEKMAVKALNVIHKELLEPLALHEVPSQASMLVEKPWLYSAEGHHHHHH”, the “soluble on expression in E. coli” value is “soluble”. In the case of “YAYKSNTYFKLKKKNIKLNGNIIKKSCKLGIPVALQNSLIAFSLIVLQKVVNGYGATFTTAFTVVSRIETLVQQPFMSLGAAVSTYTGQNIGAGLKDRVRKGFN”, the “soluble on expression in E. coli” value was “not soluble”.
